Results reported in paper PMC4271445.

Biological target: Nullbasic-FLAG-V5-6xHis (HIV-1)
Experiment: BLI

B1: Myc-DDK-tagged DDX1 (natural protein)
chain: MAAFSEMGVMPEIAQAVEEMDWLLPTDIQAESIPLILGGGDVLMAAETGSGKTGAFSIPVIQIVYETLKDQQEGKKGKTTIKTGASVLNKWQMNPYDRGSAFAIGSDGLCCQSREVKEWHGCRATKGLMKGKHYYEVSCHDQGLCRVGWSTMQASLDLGTDKFGFGFGGTGKKSHNKQFDNYGEEFTMHDTIGCYLDIDKGHVKFSKNGKDLGLAFEIPPHMKNQALFPACVLKNAELKFNFGEEEFKFPPKDGFVALSKAPDGYIVKSQHSGNAQVTQTKFLPNAPKALIVEPSRELAEQTLNNIKQFKKYIDNPKLRELLIIGGVAARDQLSVLENGVDIVVGTPGRLDDLVSTGKLNLSQVRFLVLDEADGLLSQGYSDFINRMHNQIPQVTSDGKRLQVIVCSATLHSFDVKKLSEKIMHFPTWVDLKGEDSVPDTVHHVVVPVNPKTDRLWERLGKSHIRTDDVHAKDNTRPGANSPEMWSEAIKILKGEYAVRAIKEHKMDQAIIFCRTKIDCDNLEQYFIQQGGGPDKKGHQFSCVCLHGDRKPHERKQNLERFKKGDVRFLICTDVAARGIDIHGVPYVINVTLPDEKQNYVHRIGRVGRAERMGLAISLVATEKEKVWYHVCSSRGKGCYNTRLKEDGGCTIWYNEMQLLSEIEEHLNCTISQVEPDIKVPVDEFDGKVTYGQKRAAGGGSYKGHVDILAPTVQELAALEKEAQTSFLHLGYLPNQLFRTF
**Q.** With B1 as the binder, how does the Kd read?
**A.** 6 nM
